Test results taken from publication PMC4514675, “Novel Apo E-Derived ABCA1 Agonist Peptide (CS-6253) Promotes Reverse Cholesterol Transport and Induces Formation of preβ-1 HDL In Vitro” (PLoS ONE, 2015).
“And” between values parts separate entries of the source, which are not always exact repeats. Equal values may be shown once.

Key:
[1] = test system: BHK-mock cells; experiment: Cholesterol efflux from BHK-mock cells to acceptor in human plasma; type: cell-based, hamster
Protocol: We investigated cholesterol efflux from BHK cells after adding lipid free CS-6253 to media cell culture or to human EDTA-plasma which had been stored at -80°C. BHK overexpressing human ABCA1 were labeled with 2 μCi/ml ^3H-free cholesterol (Perkin Elmer, Norwalk, Connecticut) for 24 h. Afterward, BHK-ABCA1 were stimulated with 10 nmol/l mifepristone for 18–20 h (13). Cells were incubated with various doses of acceptor in media for 4 h at 37°C. Alternatively, plasma samples were first pre-incubated for 5 min at 37°C in plasma at mole ratios (10:1 or 1:1 relative to plasma apo A-I). To obtain the HDL fraction, apoB lipoproteins were precipitated from plasma by polyethylene glycol (PEG). Also, increased doses of lipid free CS-6253 and nHDL-CS-6253 were tested for cholesterol efflux after incubation with human plasma for optimum 1h at 37°C. ^3[H]-cholesterol loaded BHK cells expressing ABCA1 were incubated with 2.8% apoB depleted plasma samples [19] for 4 h for the efflux assays. Lipid free apo A-I and nHDL-apo A-I were used as control, nHDL-CS-6253 and nHDL-apo A-I were generated after incubation with BHK cells expressing ABCA1. […]
Fig 7 Dose dependent effects of pre-incubation of plasma with lipid free CS-6253, or nHDL-CS-6253 on ABCA1 cholesterol efflux. […] Isolated HDL fractions by PEG were separated by 2D-PAGGE and HDL subpopulations were detected by apo A-I Western blot. […]

[2] = biological target: T1, ABCA1 (Homo sapiens, UniProt O95477); experiment: ABCA1-mediated cholesterol efflux from BHK-ABCA1 cells, acceptor in media; type: cell-based; parameters: expressed in transfected cells; host or cells: BHK cells, stably transfected, induced with 10 nM mifepristone (gift of J. F. Oram); conditions: BHK-ABCA1 induced with mifepristone, 4 h, 37°C, mean ± SD
T1 sequence (O95477 whole entry): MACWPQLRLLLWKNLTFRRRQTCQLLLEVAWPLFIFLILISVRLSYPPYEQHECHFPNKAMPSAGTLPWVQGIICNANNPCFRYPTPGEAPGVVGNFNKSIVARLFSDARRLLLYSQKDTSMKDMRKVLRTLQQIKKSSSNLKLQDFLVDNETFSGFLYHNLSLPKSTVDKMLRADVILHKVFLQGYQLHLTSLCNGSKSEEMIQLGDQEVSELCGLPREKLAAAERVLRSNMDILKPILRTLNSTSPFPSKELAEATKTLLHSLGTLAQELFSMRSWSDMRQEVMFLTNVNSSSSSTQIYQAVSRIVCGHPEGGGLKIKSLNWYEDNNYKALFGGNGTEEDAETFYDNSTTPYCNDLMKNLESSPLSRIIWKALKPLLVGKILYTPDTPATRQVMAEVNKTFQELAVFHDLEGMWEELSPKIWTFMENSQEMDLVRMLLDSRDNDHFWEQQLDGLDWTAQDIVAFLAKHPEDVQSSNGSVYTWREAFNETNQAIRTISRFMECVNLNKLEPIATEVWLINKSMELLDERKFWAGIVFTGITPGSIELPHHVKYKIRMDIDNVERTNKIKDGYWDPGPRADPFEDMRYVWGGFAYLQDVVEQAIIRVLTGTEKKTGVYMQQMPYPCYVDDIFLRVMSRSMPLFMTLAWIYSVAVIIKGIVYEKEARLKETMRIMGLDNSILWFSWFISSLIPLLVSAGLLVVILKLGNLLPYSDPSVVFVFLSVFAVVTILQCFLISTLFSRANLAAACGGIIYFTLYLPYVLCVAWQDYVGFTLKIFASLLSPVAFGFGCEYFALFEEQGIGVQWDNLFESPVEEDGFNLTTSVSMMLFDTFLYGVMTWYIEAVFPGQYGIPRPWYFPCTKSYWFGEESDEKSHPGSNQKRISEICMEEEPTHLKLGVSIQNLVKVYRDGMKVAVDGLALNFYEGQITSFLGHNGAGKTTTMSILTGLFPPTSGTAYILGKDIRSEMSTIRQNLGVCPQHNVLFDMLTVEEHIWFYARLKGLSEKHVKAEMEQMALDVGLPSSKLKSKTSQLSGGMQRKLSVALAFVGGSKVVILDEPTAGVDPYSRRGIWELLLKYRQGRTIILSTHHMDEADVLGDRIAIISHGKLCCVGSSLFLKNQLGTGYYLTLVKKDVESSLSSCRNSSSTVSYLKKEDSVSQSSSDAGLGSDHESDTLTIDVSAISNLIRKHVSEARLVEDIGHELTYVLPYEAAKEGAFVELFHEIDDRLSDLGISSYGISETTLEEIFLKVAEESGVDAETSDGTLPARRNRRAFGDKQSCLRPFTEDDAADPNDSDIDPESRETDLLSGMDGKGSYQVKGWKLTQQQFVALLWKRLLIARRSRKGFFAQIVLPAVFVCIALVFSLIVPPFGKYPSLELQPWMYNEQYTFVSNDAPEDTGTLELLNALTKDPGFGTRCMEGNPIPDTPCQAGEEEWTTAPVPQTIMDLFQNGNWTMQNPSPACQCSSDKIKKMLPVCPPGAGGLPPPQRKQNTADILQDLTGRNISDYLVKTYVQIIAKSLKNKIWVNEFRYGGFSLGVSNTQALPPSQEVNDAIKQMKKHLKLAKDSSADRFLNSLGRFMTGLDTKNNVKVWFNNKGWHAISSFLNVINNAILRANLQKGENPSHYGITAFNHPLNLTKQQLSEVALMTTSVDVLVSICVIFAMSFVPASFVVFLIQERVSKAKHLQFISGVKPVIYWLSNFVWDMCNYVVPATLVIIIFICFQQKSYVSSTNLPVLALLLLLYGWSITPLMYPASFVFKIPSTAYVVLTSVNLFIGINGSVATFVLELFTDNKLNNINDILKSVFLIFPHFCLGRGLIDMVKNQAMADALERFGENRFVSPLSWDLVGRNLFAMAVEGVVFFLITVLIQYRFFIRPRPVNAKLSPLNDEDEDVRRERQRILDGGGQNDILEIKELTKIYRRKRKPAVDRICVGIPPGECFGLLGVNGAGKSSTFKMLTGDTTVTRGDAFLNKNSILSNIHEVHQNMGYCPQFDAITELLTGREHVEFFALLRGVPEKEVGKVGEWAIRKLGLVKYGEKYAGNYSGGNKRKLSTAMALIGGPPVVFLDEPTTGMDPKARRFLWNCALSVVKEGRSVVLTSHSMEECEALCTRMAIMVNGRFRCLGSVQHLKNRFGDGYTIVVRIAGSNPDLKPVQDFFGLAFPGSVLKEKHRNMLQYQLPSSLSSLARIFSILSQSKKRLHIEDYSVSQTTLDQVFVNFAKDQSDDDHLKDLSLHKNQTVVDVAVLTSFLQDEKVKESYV
Excerpt: BHK cells stably transfected with an ABCA1 or ABCG1 expression vector that is mifepristone inducible and cells transfected with the same vector lacking the ABCA1 cDNA insert (mutant or mock-transfected) were generously provided by the late Dr. John F. Oram from the Department of Medicine, University of Washington, and were characterized and cultured as previously described. […] Mouse-derived peritoneal macrophages J774 were purchased from American Tissue Culture Collection (ATCC TIB-67, Cederlane, Burlington, Canada). For induction of ABCA1, BHK cells were incubated for 18–20 h with 10 nM mifepristone. J774 macrophages were stimulated with 0.3 mM Cpt-cAMP 8-(4-Chlorophenylthio)-cyclic adenosine monophosphate (Sigma). All BHK and J774 macrophages cells were respectively grown and maintained in DMEM and RPMI containing 10% fetal serum until experimental treatment. Studies were carried out on standard 24-well plates (150,000 cells/well) unless stated otherwise
We investigated cholesterol efflux from BHK cells after adding lipid free CS-6253 to media cell culture or to human EDTA-plasma which had been stored at -80°C. BHK overexpressing human ABCA1 were labeled with 2 μCi/ml ^3H-free cholesterol (Perkin Elmer, Norwalk, Connecticut) for 24 h. Afterward, BHK-ABCA1 were stimulated with 10 nmol/l mifepristone for 18–20 h (13). Cells were incubated with various doses of acceptor in media for 4 h at 37°C. Alternatively, plasma samples were first pre-incubated for 5 min at 37°C in plasma at mole ratios (10:1 or 1:1 relative to plasma apo A-I). To obtain the HDL fraction, apoB lipoproteins were precipitated from plasma by polyethylene glycol (PEG). […]
Fig 2 Effect of CS-6253 treatment on cholesterol efflux. […] Cholesterol efflux from either ABCA1 cells or control cells to apo A-I (closed circles), and CS-6253 (closed triangles) was determined at the indicated time points. […] ABCA1 was detected from THP-1 foam cells lysis at 4°C with lysis buffer containing 0.5% n-dodecylmaltoside in the presence of a protease inhibitor mixture followed by low speed centrifugation to remove cell debris. Protein concentration was determined by standard assay (Bio-Rad). […] After electrophoresis, ABCA1 was detected by an anti-ABCA1 antibody. […] E. Quantification of FC and CE in foam cells after interaction with CS-6253 and apoA-I. After a period of 4h cholesterol efflux, THP-1 foam cell lipids were extracted with hexane: isopropanol (3v/2v) as under ‘‘Material and Methods’. 3[H]-FC and 3[H]-CE were separated by TLC and located by exposure to iodine vapor, and were scraped off into liquid scintillating vials and assayed for radioactivity. […]

[3] = biological target: T1, ABCA1; experiment: ABCA1-mediated cholesterol efflux from BHK-ABCA1 cells after pre-incubation of acceptor in human plasma; type: cell-based; parameters: expressed in transfected cells; host or cells: BHK cells, stably transfected, induced with 10 nM mifepristone (gift of J. F. Oram)
Protocol: We investigated cholesterol efflux from BHK cells after adding lipid free CS-6253 to media cell culture or to human EDTA-plasma which had been stored at -80°C. BHK overexpressing human ABCA1 were labeled with 2 μCi/ml ^3H-free cholesterol (Perkin Elmer, Norwalk, Connecticut) for 24 h. Afterward, BHK-ABCA1 were stimulated with 10 nmol/l mifepristone for 18–20 h (13). Cells were incubated with various doses of acceptor in media for 4 h at 37°C. Alternatively, plasma samples were first pre-incubated for 5 min at 37°C in plasma at mole ratios (10:1 or 1:1 relative to plasma apo A-I). To obtain the HDL fraction, apoB lipoproteins were precipitated from plasma by polyethylene glycol (PEG). Also, increased doses of lipid free CS-6253 and nHDL-CS-6253 were tested for cholesterol efflux after incubation with human plasma for optimum 1h at 37°C. ^3[H]-cholesterol loaded BHK cells expressing ABCA1 were incubated with 2.8% apoB depleted plasma samples [19] for 4 h for the efflux assays. Lipid free apo A-I and nHDL-apo A-I were used as control, nHDL-CS-6253 and nHDL-apo A-I were generated after incubation with BHK cells expressing ABCA1. Direct comparisons with peptide ATI-5261 are provided using identical protocols (12).
Fig 7 Dose dependent effects of pre-incubation of plasma with lipid free CS-6253, or nHDL-CS-6253 on ABCA1 cholesterol efflux. A. Increased doses of lipid free CS-6253 or apo A-I were added to normolipidemic plasma and incubated for 1h at 37°C. A volume of 2.8% of HDL fractions isolated by PEG was used for the measurements of cholesterol efflux from BHK cells expressing ABCA1 and mock cells. […] B. nHDL-CS-6253 and nHDL-apo A-I were generated as indicated above. nHDL particles were incubated in plasma for 1h at 37°C, and specific HDL fractions isolated by PEG were subjected to cholesterol efflux in ^3[H]-radiolabelled BHK cells. […] C. Mobilization of cholesterol efflux of increasing concentrations of peptide: plasma apo A-I molar ratios: (1:0) (closed circles), (1:10) (upright closed triangles), and (1:1) (closed squares). (C inset). The double reciprocal-plot was used to calculate the apparent appKm of the efflux activity in peptide: plasma with indicated ratios. Kinetics values are as follows, molar ratio of plasma apo A-I: CS-6253 (1:0); appKm (28±0.07 μM). Molar ratio of plasma apo A-I: CS-6253 (1:1); appKm (4.17±0.47 μM). Molar ratio of plasma apo A-I: CS-6253 (1:10); appKm (0.71±0.46 μM). D. Lipid free CS-6253 was incubated with normolipidemic plasma, using peptide: apo A-I mole ratio of (1:1) for 5 min at 37°C versus plasma alone. Isolated HDL fractions by PEG were separated by 2D-PAGGE and HDL subpopulations were detected by apo A-I Western blot. Molecular size markers are shown. In all experiments, efflux of ^3[H]cholesterol is shown as means ± SD of triplicate experiments.

Km ([3]; acceptor in human plasma 1 h 37°C, 2.8% HDL fraction, 4 h, BHK-ABCA1, Fig 7A/7B, read-out: Km, cholesterol efflux, plasma (Fig 7)): 0.03 ± 0.008 µM
Vmax, cholesterol efflux, plasma (Fig 7) ([3]; acceptor in human plasma 1 h 37°C, 2.8% HDL fraction, BHK-ABCA1, Fig 7A/7B): 9.26±0.29 % efflux/4h
Vmax, cholesterol efflux, plasma (Table 1) ([3]; efflux condition plasma, 4 h, BHK-ABCA1, Table 1, mean ± SD): 8.81±0.33 % efflux/4h
Km ([3]; efflux condition plasma, 4 h, BHK-ABCA1, Table 1, mean ± SD, read-out: Km, cholesterol efflux, plasma (Table 1)): 0.02 ± 0.0091 µM
appKm, HDL specific cholesterol efflux, plasma apo A-I alone ([3]; no peptide, 5 min, 37°C, efflux 4 h, Lineweaver-Burk, listed as plasma apo A-I): 28 ± 0.072 µM and 28 ± 0.07 µM
Substance: apolipoprotein A-I [apo A-I]
maximum efflux capacity, BHK-mock ([1]; acceptor in human plasma): similar
Vmax, cholesterol efflux, BHK-mock ([1]; acceptor in human plasma 1 h, 37°C): 0.30±0.15 % efflux/6h
Km [2]: 0.15 ± 0.02 µM
Km, cholesterol efflux [2]: 4.53 ± 0.67 µg/mL
